The results in this text go back to PMC7018016, “Superstructure formation by RodZ hexamers of Shigella sonnei maintains the rod shape of bacilli” (PLoS ONE, 2020).

Where “and” joins values, the source holds several entries; their conditions need not be identical. Identical values can stand only once.

By stoichiometry N is commonly meant a count of units in the complex or per binding partner.

Series [1] has as its target RodZ_(ΔKRRKKR) (S. sonnei) (UniProt Q3YZ36). The series can be described thus: native gel or EMSA; 3%–12% BN-PAGE (NativePAGE Novex Bis-Tris), CBB without SDS, loading buffer with mild detergents; 5 μl of each purified protein. (In general: In EMSA bound probe runs differently from free probe, usually more slowly.)
Series [2] deals with the molecule itself. Described as above.
Series [3] concerns the molecule itself. Briefly: cross-linking + other: High-Mass MALDI-TOF MS; serial dilutions (1 mg/ml–19.53 μg/ml) in PBS, treated with K200 Stabilizer crosslinker, CovalX HM3 module, 0–1500 kDa; Complex Tracker software corrects for the mass of the crosslinker; monomer measured without crosslinker.

In series [1], “RodZ_(ΔKRRKKR) (from UniProt Q3YZ36 1-337) (natural protein)” gave a stoichiometry N of 6.

B1: RodZ_(1–142) (domain or fragment)
chain: MNTEATHDQNEALTTGARLRNAREQLGLSQQAVAERLCLKVSTVRDIEEDKAPADLASTFLRGYIRSYARLVHIPEEELLPGLEKQAPLRAAKVAPMQSFSLGKRRKKRDGWLMTFTWLVLFVVIGLSGAWWWQDHKAQQEE
notes: RodZ of Shigella sonnei, residues 1-142; not shown: His6, C-terminal, kept
In the case of B1, the binding result in series [2] was “binds”.

B2: RodZ_(50–337) (domain or fragment)
chain: DKAPADLASTFLRGYIRSYARLVHIPEEELLPGLEKQAPLRAAKVAPMQSFSLGKRRKKRDGWLMTFTWLVLFVVIGLSGAWWWQDHKAQQEEITTMADQSSAELSSNSEQGQSVPLNTSTTTDPATTSTPPASVDTTATNTQTPAVTAPAPAVDPQQNAVVSPSQANVDTAATPVPTAATTPDGAAPLPTDQAGVTTPAADPNALVMNFTADCWLEVTDATGKKLFSGMQRKDGNLNLTGQAPYKLKIGAPAAVQIQYQGKPVDLSRFIRTNQVARLTLNAEQSPAQ
notes: RodZ of Shigella sonnei, residues 50-337; The forward primer adds a start methionine before D50; calculated mass 31.64 kDa; also called N-terminal deletion RodZ_(50-337); not shown: His6, C-terminal, kept
Regarding B2, the “stoichiometry N” value was 6.05 times and 6.22 times and 6.03 times in series [3]; around 2 in series [2].

B3: RodZwt (wild-type RodZ of Shigella sonnei, his6-tagged) (natural protein, S. sonnei, UniProt Q3YZ36 1-337, looked up)
chain: MNTEATHDQNEALTTGARLRNAREQLGLSQQAVAERLCLKVSTVRDIEEDKAPADLASTFLRGYIRSYARLVHIPEEELLPGLEKQAPLRAAKVAPMQSFSLGKRRKKRDGWLMTFTWLVLFVVIGLSGAWWWQDHKAQQEEITTMADQSSAELSSNSEQGQSVPLNTSTTTDPATTSTPPASVDTTATNTQTPAVTAPAPAVDPQQNAVVSPSQANVDTAATPVPTAATTPDGAAPLPTDQAGVTTPAADPNALVMNFTADCWLEVTDATGKKLFSGMQRKDGNLNLTGQAPYKLKIGAPAAVQIQYQGKPVDLSRFIRTNQVARLTLNAEQSPAQ
notes: RodZ of Shigella sonnei MS390, whole rodZ amplified with primers from the start codon to the last codon (337 residues); Cloned NdeI-XhoI into pET22b; predicted mass 36.83 kDa; The XhoI site of pET22b probably adds Leu-Glu before the his6 tag (surmise); also called his6-tagged RodZ; purified RodZwt; not shown: His6, C-terminal, kept
B3: the “stoichiometry N” value is 6.36 times and 6 times in series [3]; around 6 in series [2].
